For this data set the following is noted: Locusta migratoria, pH 7.4, CD, Na2HPO4 KH2PO4 10 mM 2 mM, NaCl 127 mM, reversible: yes, whole UniProt chain shown.

B1: Apolipophorin-3b wild type, P10762 (protein)
chain: MNTLLAVLMLAVAAQARPDAAGHVNIAEAVQQLNHTIVNAAHELHETLGLPTPDEALNLLTEQANAFKTKIAEVTTSLKQEAEKHQGSVAEQLNRFARNLNNSIHDAATSAQPADQLNSLQSALTNVGHQWQTSQPRPSVAQEAWAPVQSALQEAAEKTKEAAANLQNSIQSAVQKPAN
The Tm is the temperature at the midpoint of the melting transition. For the protein B1, where the note is “25 °C, GdnHCl”, the “denaturant midpoint (higher = more stable)” value stood at 0.51 M and the unfolding free energy stood at 2.05 kcal/mol. For the setting “Thermal”, the Tm turned out to be 53 °C.

The record behind these values is FireProtDB (doi:10.1021/bi050502v).
